Consider one molecule from patent publication US20040204561A1 (published 2004).

Ends that are not written are not given here. bbDTPA = DTPA chelating ligand bonded through a carbon of its ethylene backbone

Data set [1] deals with the molecule itself. Briefly: self-association, observation of solutions. From the text: First, solutions of EP 1272L (FW=2,243 Da) were concentrated and purified by centrifugation in a filter device with a nominal molecular weight limit of 300,000 Da. The formation of high molecular weight aggregates allowed EP1272L to be retained by the filter device. […] Third, SEC-LS column retention and light scattering measurements of EP1272L were consistent with a large species having a mass distribution of 4×10⁶ to 13×10⁶ Da, and a hydrodynamic radius in the range of 155 nm to 210 nm.

Data set [2] addresses T1, streptavidin (on magnetic beads) (UniProt P22629 37-163, limits assumed).
T1 construct: also called streptavidin beads; streptavidin-coated beads
Nature of the data set: capture on streptavidin magnetic beads, gadolinium ICP. The protocol:
The three EP1595/EP1272 formulations, one EP1596/EP1272 formulation, and an EP1272 formulation were assayed for affinity to streptavidin magnetic beads. Each sample was diluted so as to maintain a constant ratio of biotinylated peptide and streptavidin binding sites in the assay. Solutions without biotin were treated as though they contained 0.5% EP1595. After several rinses the magnetic beads were digested in acid. The extent of capture was quantified by gadolinium ICP.

T1 sequence (P22629 37-163 limits assumed): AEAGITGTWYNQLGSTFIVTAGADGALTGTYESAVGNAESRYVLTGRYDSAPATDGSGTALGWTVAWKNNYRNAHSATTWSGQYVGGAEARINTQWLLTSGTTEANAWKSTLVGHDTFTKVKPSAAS

B1: EP1272L (peptide)
peptide: bbDTPA-GAEAEAKAKAEAEAKAK
modifications: also: bbDTPA complexed to Gd(III)
notes: also called EP1272L aggregates alone; EP1272 formulation
For the molecule B1, the binding result in data set [1] and in data set [2] was “binds” throughout.
